From patent CN114423789A (ZHEJIANG JIANMAI PHARMACEUTICAL CO LTD, dated 2022)
Values belong to the binder of their own block, whether it stands above or below them.

Assays:
[1] = target: T1, recombinant human mesothelin (full-length extracellular domain) (human, UniProt Q13421 296-580, limits assumed); experiment: ELISA, recombinant human mesothelin coated at 50 ng/well, Fab detected with HRP anti-FLAG
T1 construct: extracellular domain; Bought protein coated on ELISA plates at 50 ng per well; also called 重组人间皮素; 人间皮素(MSLN)蛋白

[2] = target: T1, recombinant human mesothelin …; experiment: ELISA, recombinant human mesothelin coated at 50 ng/well, fit to a Langmuir isotherm

T1 sequence (Q13421 other isoform, or with tags, fused parts or gaps limits assumed): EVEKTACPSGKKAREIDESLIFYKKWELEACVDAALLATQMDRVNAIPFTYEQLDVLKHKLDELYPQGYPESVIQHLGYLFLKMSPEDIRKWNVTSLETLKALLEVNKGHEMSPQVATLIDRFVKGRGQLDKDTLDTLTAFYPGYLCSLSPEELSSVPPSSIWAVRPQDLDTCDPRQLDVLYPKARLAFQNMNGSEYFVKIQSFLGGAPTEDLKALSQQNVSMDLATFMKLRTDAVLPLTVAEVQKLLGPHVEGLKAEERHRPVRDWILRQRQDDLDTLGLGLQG

EC50 [1]: 21 nM
B1: M10 Fab (Fab, V domains shown)
VH: QLVETGGGLVQPGRSLRLSCAASGFTFDDYAMHWVRQAPGKGLEWVSGISWNSGSIGYADSVKGRFTISRDNAKNSLYLQMNSLRAEDTAVYYCARDSGSSGWYGYFQHWGQGTLVTVSS
VL: SYVLTQPPSVSVSPGQTARITCSGDALPKQYAFWYQQKPGQAPVLVIYKDSERPSGIPERFSGSSSGTTVTLTISGVQAEDEADYYCQSADSSATSVIFGGGTKLTVLG
notes: also called Fab克隆M10

EC50 [2]: 0.2 nM
B2: M10 mAb (anti-human mesothelin monoclonal antibody IgG1) (antibody, V domains shown)
VH: B1 VH
VL: B1 VL
notes: Full human IgG1: the heavy-chain Fd of M10 Fab fused to human IgG1 Fc, about 150 kDa non-reduced; also called 抗间皮素M10 mAb; 抗间皮素单克隆抗体
